{"source": "patent US20200399314A1", "about": "(MEDIKINE, published 2020)", "target": "T1, human IL-2Rα subunit (human, UniProt P01589 22-213, limits assumed)", "T1 construct": "also called CD25", "T1 sequence (looked up)": "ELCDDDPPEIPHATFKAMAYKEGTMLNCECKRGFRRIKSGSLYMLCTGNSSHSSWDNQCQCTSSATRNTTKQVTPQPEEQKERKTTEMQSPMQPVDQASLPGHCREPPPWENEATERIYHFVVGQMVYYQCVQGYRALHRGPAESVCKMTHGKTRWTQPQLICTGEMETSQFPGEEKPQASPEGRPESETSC", "note": "Bridge positions count the residues as written; N and C are the ends. Ends that are not written are not given here.", "data": [{"binder": "SCTVRWDGDWWVCE", "note": "[SEQ ID NO 170]", "values": [{"measurement": "IC50", "value": "< 100", "unit": "µM"}]}, {"binder": "TRWCSLHPGVGECVTL", "note": "[SEQ ID NO 137]", "values": [{"measurement": "IC50", "value": "< 100", "unit": "µM"}]}, {"binder": "FVPWDEYFLQIL", "note": "[SEQ ID NO 15]", "values": [{"measurement": "IC50", "value": "< 100", "unit": "µM"}]}, {"binder": "FVLCGLQGCRGS", "note": "[SEQ ID NO 19]", "values": [{"measurement": "IC50", "value": "< 100", "unit": "µM"}]}, {"binder": "RQFCLVSPGYEDCWFV", "note": "[SEQ ID NO 135]", "values": [{"measurement": "IC50", "value": "< 100", "unit": "µM"}]}, {"binder": "RGCMLRLQPELACVF", "note": "[SEQ ID NO 147]", "values": [{"measurement": "IC50", "value": "< 100", "unit": "µM"}]}, {"binder": "RGCSLVWSGSWECIF", "note": "[SEQ ID NO 154]", "values": [{"measurement": "IC50", "value": "< 100", "unit": "µM"}]}, {"binder": "RGCSLVWAGSWECIF", "note": "[SEQ ID NO 159]", "values": [{"measurement": "IC50", "value": "< 100", "unit": "µM"}]}, {"binder": "GCTLKWESPNWTCY", "note": "[SEQ ID NO 169]", "values": [{"measurement": "IC50", "value": "< 100", "unit": "µM"}]}, {"binder": "RGCSLRFAEAWECIF", "note": "[SEQ ID NO 163]", "values": [{"measurement": "IC50", "value": "< 100", "unit": "µM"}]}, {"binder": "TCTVHRIGLAEWECV (disulfide 2-14 (inferred))", "note": "[SEQ ID NO 204]", "values": [{"measurement": "IC50", "value": "< 100", "unit": "µM"}]}, {"binder": "GCTLSWNQGWWHCV", "note": "[SEQ ID NO 172]", "values": [{"measurement": "IC50", "value": "< 100", "unit": "µM"}]}, {"binder": "ASCSLVWQDSWVCIF", "note": "[SEQ ID NO 164]", "values": [{"measurement": "IC50", "value": "< 100", "unit": "µM"}]}, {"binder": "TRMCFDDPGWHSCPVV", "note": "[SEQ ID NO 136]", "values": [{"measurement": "IC50", "value": "< 100", "unit": "µM"}]}, {"binder": "NGCTLSFSGMSWTCVY (disulfide 3-14 (inferred))", "note": "[SEQ ID NO 185]", "values": [{"measurement": "IC50", "value": "< 100", "unit": "µM"}]}, {"binder": "RCTLRFDAQTGWECN", "note": "[SEQ ID NO 202]", "values": [{"measurement": "IC50", "value": "< 100", "unit": "µM"}]}, {"binder": "VRCFMSEPGRVSYCTA", "note": "[SEQ ID NO 209]", "values": [{"measurement": "IC50", "value": "< 100", "unit": "µM"}]}, {"binder": "RRCTLVFLDSWECIF (disulfide 3-13 (inferred))", "note": "[SEQ ID NO 161]", "values": [{"measurement": "IC50", "value": "< 100", "unit": "µM"}]}, {"binder": "ACWRSWRYPTRTFCS", "note": "[SEQ ID NO 198]", "values": [{"measurement": "IC50", "value": "< 100", "unit": "µM"}]}, {"binder": "SRCSLVWTDTWVCVF", "note": "[SEQ ID NO 152]", "values": [{"measurement": "IC50", "value": "< 100", "unit": "µM"}]}, {"binder": "RGCTLAWEDSWVCIF (disulfide 3-13 (inferred))", "note": "[SEQ ID NO 162]", "values": [{"measurement": "IC50", "value": "< 100", "unit": "µM"}]}, {"binder": "FIPWDEYFKQVL", "note": "[SEQ ID NO 11]", "values": [{"measurement": "IC50", "value": "< 100", "unit": "µM"}]}, {"binder": "SGCSLQWADGWVCIF (disulfide 3-13 (inferred))", "note": "[SEQ ID NO 157]", "values": [{"measurement": "IC50", "value": "< 100", "unit": "µM"}]}, {"binder": "LACILSKPGEHWECLF", "note": "[SEQ ID NO 184]", "values": [{"measurement": "IC50", "value": "< 100", "unit": "µM"}]}, {"binder": "NTCKLFRSGNIWQCIF", "note": "[SEQ ID NO 187]", "values": [{"measurement": "IC50", "value": "< 100", "unit": "µM"}]}, {"binder": "GCSLMWQDGWWVCI", "note": "[SEQ ID NO 171]", "values": [{"measurement": "IC50", "value": "< 100", "unit": "µM"}]}, {"binder": "KVICGWDGCR", "note": "[SEQ ID NO 20]", "values": [{"measurement": "IC50", "value": "< 100", "unit": "µM"}]}, {"binder": "VRCRVLYPGQMAVCVS", "note": "[SEQ ID NO 211]", "values": [{"measurement": "IC50", "value": "< 100", "unit": "µM"}]}, {"binder": "SKCHLIVSGKFHECVF", "note": "[SEQ ID NO 191]", "values": [{"measurement": "IC50", "value": "< 100", "unit": "µM"}]}, {"binder": "VGCSLVWTDRWECIF (disulfide 3-13 (inferred))", "note": "[SEQ ID NO 156]", "values": [{"measurement": "IC50", "value": "< 100", "unit": "µM"}]}, {"binder": "GGCSLVWADSWVCIF", "note": "[SEQ ID NO 148]", "values": [{"measurement": "IC50", "value": "< 100", "unit": "µM"}]}, {"binder": "GRCHLVWSDRWECIF", "note": "[SEQ ID NO 166]", "values": [{"measurement": "IC50", "value": "< 100", "unit": "µM"}]}, {"binder": "QRCQLSWSGGELGCMF (disulfide 3-14 (inferred))", "note": "[SEQ ID NO 178]", "values": [{"measurement": "IC50", "value": "< 100", "unit": "µM"}]}, {"binder": "TCRLKRSGPNSWECI", "note": "[SEQ ID NO 203]", "values": [{"measurement": "IC50", "value": "< 100", "unit": "µM"}]}, {"binder": "GCMLTRGKFWWECI", "note": "[SEQ ID NO 173]", "values": [{"measurement": "IC50", "value": "< 100", "unit": "µM"}]}, {"binder": "ATCMLRLLGDGWGCVF", "note": "[SEQ ID NO 181]", "values": [{"measurement": "IC50", "value": "< 100", "unit": "µM"}]}, {"binder": "YASCTYLPGHRGCTLV", "note": "[SEQ ID NO 139]", "values": [{"measurement": "IC50", "value": "< 100", "unit": "µM"}]}, {"binder": "RCRLQKAGGNTWECI", "note": "[SEQ ID NO 201]", "values": [{"measurement": "IC50", "value": "< 100", "unit": "µM"}]}, {"binder": "NSCILSNPGLGWQCVF", "note": "[SEQ ID NO 186]", "values": [{"measurement": "IC50", "value": "< 100", "unit": "µM"}]}, {"binder": "VKCKLVNPGSGWACHF (disulfide 3-14 (inferred))", "note": "[SEQ ID NO 208]", "values": [{"measurement": "IC50", "value": "< 100", "unit": "µM"}]}, {"binder": "SRCSLVWAENWVCIF", "note": "[SEQ ID NO 160]", "values": [{"measurement": "IC50", "value": "< 100", "unit": "µM"}]}, {"binder": "NCRVRHLPYPFWSCL", "note": "[SEQ ID NO 200]", "values": [{"measurement": "IC50", "value": "< 100", "unit": "µM"}]}, {"binder": "QACQLVWLDSWVCIF", "note": "[SEQ ID NO 155]", "values": [{"measurement": "IC50", "value": "< 100", "unit": "µM"}]}, {"binder": "VTCYRAVPGVEAYCFS", "note": "[SEQ ID NO 212]", "values": [{"measurement": "IC50", "value": "< 100", "unit": "µM"}]}, {"binder": "NHCTLSKTYPWVCVF (disulfide 3-13 (inferred))", "note": "[SEQ ID NO 145]", "values": [{"measurement": "IC50", "value": "< 100", "unit": "µM"}]}, {"binder": "VRCRLARPGLTWECLS", "note": "[SEQ ID NO 210]", "values": [{"measurement": "IC50", "value": "< 100", "unit": "µM"}]}, {"binder": "AGCMLLKPGLYWECIF", "note": "[SEQ ID NO 179]", "values": [{"measurement": "IC50", "value": "< 100", "unit": "µM"}]}, {"binder": "SACTPNWTGRWWECVF (disulfide 3-14 (inferred))", "note": "[SEQ ID NO 190]", "values": [{"measurement": "IC50", "value": "< 100", "unit": "µM"}]}, {"binder": "QRCNRSLLDALICQA", "note": "[SEQ ID NO 146]", "values": [{"measurement": "IC50", "value": "< 100", "unit": "µM"}]}, {"binder": "GPCRLSNPGTGWECIF (disulfide 3-14 (inferred))", "note": "[SEQ ID NO 182]", "values": [{"measurement": "IC50", "value": "< 100", "unit": "µM"}]}, {"binder": "TTVCDYHPGSRYCINE", "note": "[SEQ ID NO 138]", "values": [{"measurement": "IC50", "value": "< 100", "unit": "µM"}]}, {"binder": "ARCSLVWDEAWVCIF", "note": "[SEQ ID NO 158]", "values": [{"measurement": "IC50", "value": "< 100", "unit": "µM"}]}, {"binder": "PSCRLWNPGFGWECIF", "note": "[SEQ ID NO 188]", "values": [{"measurement": "IC50", "value": "< 100", "unit": "µM"}]}, {"binder": "SRCTLVFDDSWVCVF", "note": "[SEQ ID NO 153]", "values": [{"measurement": "IC50", "value": "< 100", "unit": "µM"}]}, {"binder": "FIPWEEYFSQLL", "note": "[SEQ ID NO 13]", "values": [{"measurement": "IC50", "value": "< 100", "unit": "µM"}]}, {"binder": "FIPWPEYFSQLL", "note": "[SEQ ID NO 14]", "values": [{"measurement": "IC50", "value": "< 100", "unit": "µM"}]}, {"binder": "SRCSLVWADSWVCIF", "note": "[SEQ ID NO 165]", "values": [{"measurement": "IC50", "value": "< 100", "unit": "µM"}]}, {"binder": "KGCTLQNPGSGWVCLF", "note": "[SEQ ID NO 183]", "values": [{"measurement": "IC50", "value": "< 100", "unit": "µM"}]}, {"binder": "WLPCDDYPGHGYCYSR (disulfide 4-13 (inferred))", "note": "[SEQ ID NO 140]", "values": [{"measurement": "IC50", "value": "< 100", "unit": "µM"}]}, {"binder": "STCRMGNPGGVWGCYF (disulfide 3-14 (inferred))", "note": "[SEQ ID NO 193]", "values": [{"measurement": "IC50", "value": "< 100", "unit": "µM"}]}, {"binder": "SSCTLFNPGTGWTCVF", "note": "[SEQ ID NO 192]", "values": [{"measurement": "IC50", "value": "< 100", "unit": "µM"}]}, {"binder": "TRCRLLKLGSLWECFG", "note": "[SEQ ID NO 195]", "values": [{"measurement": "IC50", "value": "< 100", "unit": "µM"}]}, {"binder": "FVPWPEYFLQIM", "note": "[SEQ ID NO 12]", "values": [{"measurement": "IC50", "value": "< 100", "unit": "µM"}]}, {"binder": "SACQLKWDEGWTCLF", "note": "[SEQ ID NO 144]", "values": [{"measurement": "IC50", "value": "< 100", "unit": "µM"}]}, {"binder": "KCRLRQMSRGGWECL", "note": "[SEQ ID NO 199]", "values": [{"measurement": "IC50", "value": "< 100", "unit": "µM"}]}, {"binder": "ARCSLHHTGSRYECIF", "note": "[SEQ ID NO 180]", "values": [{"measurement": "IC50", "value": "< 100", "unit": "µM"}]}, {"binder": "QSCTLQRLGHLYQCWF", "note": "[SEQ ID NO 189]", "values": [{"measurement": "IC50", "value": "< 100", "unit": "µM"}]}, {"binder": "THCLVQWPGPVVACRS", "note": "[SEQ ID NO 194]", "values": [{"measurement": "IC50", "value": "< 100", "unit": "µM"}]}, {"binder": "GCVLQFSGVWWECV (disulfide 2-13 (inferred))", "note": "[SEQ ID NO 174]", "values": [{"measurement": "IC50", "value": "< 100", "unit": "µM"}]}]}
